# In the RNAGym collection of RNA variant scans (doi:10.7554/elife.80360):
# B1: Twister Ribozyme (parent)
# chain: AACACUGCCAAUGCCGGUCCCAAGCCCGGAUAAAAGUGGAGGGGGCGG
# Variants of: B1
# Experiment: self-cleavage, relative activity (ratio to wild type); higher = more cleavage; co-transcriptional
row,Variant,self-cleavage
1,AACACUGCCAAUGCCGGUCCCAAGCCCGGAUAAAAGUGGAGUGGGGGG [G42U C46G],0.309
2,AACACUGCCAAUGCCGGUCCCAAGCCCGGAUAAAAGUGGAGUGGGUGG [G42U C46U],0.383
3,AACACUGCCAAUGCCGGUCCCAAGCCCGGAUAAAAGUGGAGCGGGCCG [G42C G47C],0.467
4,AACACUGCCAAUGCCGGUCCCAAGCCCGGAUAAAAGUGGAGCGGGCUG [G42C G47U],0.491
5,AACACUGCCAAUGCCGGUCCCAAGCCCGGAUAAAAGUGGAGCGGGCAG [G42C G47A],0.43
6,AACACUGCCAAUGCCGGUCCCAAGCCCGGAUAAAAGUGGAGGACGCGG [G43A G44C],0.465
7,AACACUGCCAAUGCCGGUCCCAAGCCCGGAUAAAAGUGGAGGAUGCGG [G43A G44U],0.271
8,AACACUGCCAAUGCCGGUCCCAAGCCCGGAUAAAAGUGGAGGAAGCGG [G43A G44A],0.267
9,AACACUGCCAAUGCCGGUCCCAAGCCCGGAUAAAAGUGGAGCGGGAGG [G42C C46A],0.289
10,AACACUGCCAAUGCCGGUCCCAAGCCCGGAUAAAAGUGGAGGCCGCGG [G43C G44C],0.686
11,AACACUGCCAAUGCCGGUCCCAAGCCCGGAUAAAAGUGGAGGCAGCGG [G43C G44A],0.469
12,AACACUGCCAAUGCCGGUCCCAAGCCCGGAUAAAAGUGGAGGAGACGG [G43A G45A],0.318
13,AACACUGCCAAUGCCGGUCCCAAGCCCGGAUAAAAGUGGAGGAGUCGG [G43A G45U],0.305
14,AACACUGCCAAUGCCGGUCCCAAGCCCGGAUAAAAGUGGAGGUAGCGG [G43U G44A],0.722
15,AACACUGCCAAUGCCGGUCCCAAGCCCGGAUAAAAGUGGAGGAGGCGU [G43A G48U],0.291
16,AACACUGCCAAUGCCGGUCCCAAGCCCGGAUAAAAGUGGAGGAGGCGC [G43A G48C],0.354
17,AACACUGCCAAUGCCGGUCCCAAGCCCGGAUAAAAGUGGAGGAGGCGA [G43A G48A],0.244
18,AACACUGCCAAUGCCGGUCCCAAGCCCGGAUAAAAGUGGAGUCGGCGG [G42U G43C],0.114
19,AACACUGCCAAUGCCGGUCCCAAGCCCGGAUAAAAGUGGAGUUGGCGG [G42U G43U],0.127
20,AACACUGCCAAUGCCGGUCCCAAGCCCGGAUAAAAGUGGAGUGGGCGU [G42U G48U],0.451
21,AACACUGCCAAUGCCGGUCCCAAGCCCGGAUAAAAGUGGAGUGGGCGA [G42U G48A],0.25
22,AACACUGCCAAUGCCGGUCCCAAGCCCGGAUAAAAGUGGAGGUGGAGG [G43U C46A],0.271
23,AACACUGCCAAUGCCGGUCCCAAGCCCGGAUAAAAGUGGAGGUGGUGG [G43U C46U],0.426
24,AACACUGCCAAUGCCGGUCCCAAGCCCGGAUAAAAGUGGAGGUGGGGG [G43U C46G],0.409
25,AACACUGCCAAUGCCGGUCCCAAGCCCGGAUAAAAGUGGAGUGCGCGG [G42U G44C],0.202
26,AACACUGCCAAUGCCGGUCCCAAGCCCGGAUAAAAGUGGAGUGUGCGG [G42U G44U],0.196
27,AACACUGCCAAUGCCGGUCCCAAGCCCGGAUAAAAGUGGAGGCGUCGG [G43C G45U],0.275

row,Variant,self-cleavage
1,AACACUGCCAAUGCCGGUCCCAAGCCCGGAUAAAAGUGGAGGCGCCGG [G43C G45C],0.267
2,AACACUGCCAAUGCCGGUCCCAAGCCCGGAUAAAAGUGGAGCGCGCGG [G42C G44C],0.17
3,AACACUGCCAAUGCCGGUCCCAAGCCCGGAUAAAAGUGGAGCGAGCGG [G42C G44A],0.396
4,AACACUGCCAAUGCCGGUCCCAAGCCCGGAUAAAAGUGGAGCUGGCGG [G42C G43U],0.137
5,AACACUGCCAAUGCCGGUCCCAAGCCCGGAUAAAAGUGGAGCCGGCGG [G42C G43C],0.365
6,AACACUGCCAAUGCCGGUCCCAAGCCCGGAUAAAAGUGGAGUGGACGG [G42U G45A],0.294
7,AACACUGCCAAUGCCGGUCCCAAGCCCGGAUAAAAGUGGAGUGGCCGG [G42U G45C],0.203
8,AACACUGCCAAUGCCGGUCCCAAGCCCGGAUAAAAGUGGAGUGGUCGG [G42U G45U],0.191
9,AACACUGCCAAUGCCGGUCCCAAGCCCGGAUAAAAGUGGAGGAGGCGG [G43A],0.328
10,AACACUGCCAAUGCCGGUCCCAAGCCCGGAUAAAAGUGGAGGUGGCGG [G43U],0.537
11,AACACUGCCAAUGCCGGUCCCAAGCCCGGAUAAAAGUGGAGGCGGCGG [G43C],0.227
12,AACACUGCCAAUGCCGGUCCCAAGCCCGGAUAAAAGUGGAGCGGACGG [G42C G45A],0.329
13,AACACUGCCAAUGCCGGUCCCAAGCCCGGAUAAAAGUGGAGCGGCCGG [G42C G45C],0.131
14,AACACUGCCAAUGCCGGUCCCAAGCCCGGAUAAAAGUGGAGUGGGCGG [G42U],0.445
15,AACACUGCCAAUGCCGGUCCCAAGCCCGGAUAAAAGUGGAGCGGGCGG [G42C],0.622
16,AACACUGCCAAUGCCGGUCCCAAGCCCGGAUAAAAGUGGAGAGGGCUG [G42A G47U],0.325
17,AACACUGCCAAUGCCGGUCCCAAGCCCGGAUAAAAGUGGAGGCGGAGG [G43C C46A],0.111
18,AACACUGCCAAUGCCGGUCCCAAGCCCGGAUAAAAGUGGAGGCGGGGG [G43C C46G],0.174
19,AACACUGCCAAUGCCGGUCCCAAGCCCGGAUAAAAGUGGAGUGGGCUG [G42U G47U],0.296
20,AACACUGCCAAUGCCGGUCCCAAGCCCGGAUAAAAGUGGAGUGGGCCG [G42U G47C],0.224
21,AACACUGCCAAUGCCGGUCCCAAGCCCGGAUAAAAGUGGAGGAGGUGG [G43A C46U],0.315
22,AACACUGCCAAUGCCGGUCCCAAGCCCGGAUAAAAGUGGAGGAGGGGG [G43A C46G],0.367
23,AACACUGCCAAUGCCGGUCCCAAGCCCGGAUAAAAGUGGAGGAGGCUG [G43A G47U],0.175
24,AACACUGCCAAUGCCGGUCCCAAGCCCGGAUAAAAGUGGAGCGGGCGU [G42C G48U],0.561
25,AACACUGCCAAUGCCGGUCCCAAGCCCGGAUAAAAGUGGAGAGGGCGA [G42A G48A],0.296
26,AACACUGCCAAUGCCGGUCCCAAGCCCGGAUAAAAGUGGAGAGGGCGU [G42A G48U],0.397
27,AACACUGCCAAUGCCGGUCCCAAGCCCGGAUAAAAGUGGAGGCGGCGU [G43C G48U],0.138
